# Assay results published in patent publication US20260241049A1, “Radiopharmaceutical Compositions Targeting Glypican-3 and Uses Thereof” (RayzeBio, Inc., priority 2023, published 2026).
# Starred links: 1 amine or outer side, 2 acyl side, 3 side chain; linkers in the order of their positions; H or OH if unused. Positions of bridges follow the written chain, without caps; N, C: chain ends. Non-standard residues stand in square brackets, D forms with d. Primed or numbered codes have the meaning given here. MeA4paa = 3-(1-(carboxymethyl)piperidin-4-yl)-2-(methylamino)propanoic acid, CN([C@@H](CC1CCN(CC(=O)[*:3])CC1)C(=O)[*:2])[*:1]; MeHseMe″ = (2S)-4-methoxy-2-(methylamino)butanoic acid (N-methyl-O-methyl-L-homoserine), COCC[C@@H](C(=O)[*:2])N(C)[*:1]; F4aao = 4-(carboxymethoxy)-L-phenylalanine, O=C([C@H](Cc1ccc(OCC(=O)[*:3])cc1)N[*:1])[*:2]; F4aao(4) = 4-(carboxymethoxy)phenylalanine, O=C([C@H](Cc1ccc(OCC(=O)[*:3])cc1)N[*:1])[*:2]; Thr(Me)(3) = TMe, O-methyl-L-threonine, CO[C@H](C)[C@H](N[*:1])C(=O)[*:2]; Hgn = 2,6-diamino-6-oxohexanoic acid, NC(=O)CCC[C@H](N[*:1])C(=O)[*:2]; HseMe = 2-amino-4-methoxybutanoic acid, COCC[C@H](N[*:1])C(=O)[*:2]; Phe(4-(1-Me-pyrazol-4-yl)) = Cn1cc(-c2ccc(C[C@H](N)C(=O)O)cc2)cn1; Phe(4-CH2COOH) = N[C@@H](Cc1ccc(CC(=O)O)cc1)C(=O)O; Phe(4-COOH) = N[C@@H](Cc1ccc(C(=O)O)cc1)C(=O)O; NMe2Nal = CN[C@@H](Cc1ccc2ccccc2c1)C(=O)O; NMeQ = CN[C@@H](CCC(N)=O)C(=O)O; NMeL = CN[C@@H](CC(C)C)C(=O)O; MeD = methyl-L-aspartic acid; NMeC = CN[C@@H](CS)C(=O)O; NMeA = CN[C@@H](C)C(=O)O
# Target: T1, human Glypican3 (R&D systems, catalog number: 2119-GP) (human, UniProt P51654 25-559, limits assumed)
# T1 construct: Bought recombinant protein, amine-coupled to the chip in Method B-1; also called GPC3; hGPC3
# Experiment: SPR (Biacore T200), Method B-1: human Glypican3 amine-coupled to CM3 chip, peptide as analyte
# Protocol: A CM3 sensor chip (Cytiva) was inserted into a Biacore T200 (Cytiva), primed three times with a running buffer: HBS-P+, pH 7.4 (Cytiva), and equilibrated at a flow rate of 30 μL/min. Ligand immobilization was performed at a flow rate of 10 μL/min. 50 μL each of 60 mM EDC solution (Cytiva) and 650 mM NHS solution (Cytiva) were mixed, and then reacted at a flow rate of 10 μL/min for 420 seconds, 150 μL of 0.2 μM human Glypican3 (R&D systems, catalog number: 2119-GP) solution which was prepared by diluting with 10 mM acetic acid solution (pH 5.0), was reacted at a flow rate of 10 μL/min for 420 seconds, and Glypican3 was immobilized on the CM3 sensor chip. After immobilization, 1.0 M ethanolamine aqueous solution (Cytiva) was allowed to react for 420 seconds at a flow rate of 10 μL/min for capping. A peptide lysate prepared to 10 mM in DMSO solution was diluted with running buffer to a final concentration of 10 μM peptide lysate. […] Using the above samples, peptide kinetics for Glypican3 was obtained by SPR measurement. Kinetics evaluation of Glypican3 was performed by SPR measurements at a flow rate of 10 μL/min, setting the association time to 120 seconds and the disassociation time to 600 seconds.
# The obtained data by Method B-1, Method B-2, Method B-3 and Method B-4 were analyzed by follow. Single Cycle Kinetics was used as the kinetics evaluation model, and curve fitting was performed using Biacore T200 Evaluation Software Version 3.0 (Cytiva).
row,Binder,Kd [nM]
1,{CH2CO}-[NMeQ][NMeQ]D[NMeQ][Phe(4-COOH)]II[Phe(4-CH2COOH)][NMe2Nal]G[Phe(4-(1-Me-pyrazol-4-yl))][NMeC]-NH2 (thioether N-12; SMILES CC[C@H](C)[C@@H]1NC(=O)[C@H](Cc2ccc(C(=O)O)cc2)NC(=O)[C@H](CCC(N)=O)N(C)C(=O)[C@H](CC(=O)O)NC(=O)[C@H](CCC(N)=O)N(C)C(=O)[C@H](CCC(N)=O)N(C)C(=O)CSC[C@@H](C(N)=O)N(C)C(=O)[C@H](Cc2ccc(-c3cnn(C)c3)cc2)NC(=O)CNC(=O)[C@H](Cc2ccc3ccccc3c2)N(C)C(=O)[C@H](Cc2ccc(CC(=O)O)cc2)NC(=O)[C@H]([C@@H](C)CC)NC1=O) [Macrocyclic peptide of Example 2-16 (SEQ ID No. 19)],3.5
2,{CH2CO}-[NMeQ][NMeQ]D[NMeQ][Phe(4-COOH)]II[Phe(4-COOH)][NMe2Nal]G[Phe(4-(1-Me-pyrazol-4-yl))][NMeC]-NH2 (thioether N-12; SMILES CC[C@H](C)[C@@H]1NC(=O)[C@H](Cc2ccc(C(=O)O)cc2)NC(=O)[C@H](CCC(N)=O)N(C)C(=O)[C@H](CC(=O)O)NC(=O)[C@H](CCC(N)=O)N(C)C(=O)[C@H](CCC(N)=O)N(C)C(=O)CSC[C@@H](C(N)=O)N(C)C(=O)[C@H](Cc2ccc(-c3cnn(C)c3)cc2)NC(=O)CNC(=O)[C@H](Cc2ccc3ccccc3c2)N(C)C(=O)[C@H](Cc2ccc(C(=O)O)cc2)NC(=O)[C@H]([C@@H](C)CC)NC1=O) [Macrocyclic peptide of Example 2-5 (SEQ ID No. 8)],2.6
3,{CH2CO}-[NMeQ][NMeQ]D[MeA4paa][Phe(4-COOH)]II[Phe(4-COOH)][NMe2Nal]G[Phe(4-(1-Me-pyrazol-4-yl))][NMeC]-NH2 (thioether N-12; SMILES CC[C@H](C)[C@@H]1NC(=O)[C@H](Cc2ccc(C(=O)O)cc2)NC(=O)[C@H](CC2CCN(CC(=O)O)CC2)N(C)C(=O)[C@H](CC(=O)O)NC(=O)[C@H](CCC(N)=O)N(C)C(=O)[C@H](CCC(N)=O)N(C)C(=O)CSC[C@@H](C(N)=O)N(C)C(=O)[C@H](Cc2ccc(-c3cnn(C)c3)cc2)NC(=O)CNC(=O)[C@H](Cc2ccc3ccccc3c2)N(C)C(=O)[C@H](Cc2ccc(C(=O)O)cc2)NC(=O)[C@H]([C@@H](C)CC)NC1=O) [Macrocyclic peptide of Example 2-12 (SEQ ID No. 15)],2.9
4,{CH2CO}-[NMeQ][HseMe]D[NMeQ][Phe(4-COOH)]II[Phe(4-COOH)][NMe2Nal]G[Phe(4-(1-Me-pyrazol-4-yl))][NMeC]-NH2 (thioether N-12; SMILES CC[C@H](C)[C@@H]1NC(=O)[C@H](Cc2ccc(C(=O)O)cc2)NC(=O)[C@H](CCC(N)=O)N(C)C(=O)[C@H](CC(=O)O)NC(=O)[C@H](CCOC)NC(=O)[C@H](CCC(N)=O)N(C)C(=O)CSC[C@@H](C(N)=O)N(C)C(=O)[C@H](Cc2ccc(-c3cnn(C)c3)cc2)NC(=O)CNC(=O)[C@H](Cc2ccc3ccccc3c2)N(C)C(=O)[C@H](Cc2ccc(C(=O)O)cc2)NC(=O)[C@H]([C@@H](C)CC)NC1=O) [Macrocyclic peptide of Example 2-9 (SEQ ID No. 12)],7.2
5,{CH2CO}-[NMeQ][NMeQ]K(Ac)[NMeQ][Phe(4-COOH)]II[Phe(4-COOH)][NMe2Nal]G[Phe(4-(1-Me-pyrazol-4-yl))][NMeC]-NH2 (thioether N-12; SMILES CC[C@H](C)[C@@H]1NC(=O)[C@H](Cc2ccc(C(=O)O)cc2)NC(=O)[C@H](CCC(N)=O)N(C)C(=O)[C@H](CCCCNC(C)=O)NC(=O)[C@H](CCC(N)=O)N(C)C(=O)[C@H](CCC(N)=O)N(C)C(=O)CSC[C@@H](C(N)=O)N(C)C(=O)[C@H](Cc2ccc(-c3cnn(C)c3)cc2)NC(=O)CNC(=O)[C@H](Cc2ccc3ccccc3c2)N(C)C(=O)[C@H](Cc2ccc(C(=O)O)cc2)NC(=O)[C@H]([C@@H](C)CC)NC1=O) [Macrocyclic peptide of Example 2-11 (SEQ ID No. 14)],2.5
6,{CH2CO}-[NMeQ][NMeQ][Hgn][NMeQ][Phe(4-COOH)]II[Phe(4-COOH)][NMe2Nal]G[Phe(4-(1-Me-pyrazol-4-yl))][NMeC]-NH2 (thioether N-12; SMILES CC[C@H](C)[C@@H]1NC(=O)[C@H](Cc2ccc(C(=O)O)cc2)NC(=O)[C@H](CCC(N)=O)N(C)C(=O)[C@H](CCCC(N)=O)NC(=O)[C@H](CCC(N)=O)N(C)C(=O)[C@H](CCC(N)=O)N(C)C(=O)CSC[C@@H](C(N)=O)N(C)C(=O)[C@H](Cc2ccc(-c3cnn(C)c3)cc2)NC(=O)CNC(=O)[C@H](Cc2ccc3ccccc3c2)N(C)C(=O)[C@H](Cc2ccc(C(=O)O)cc2)NC(=O)[C@H]([C@@H](C)CC)NC1=O) [Macrocyclic peptide of Example 2-10 (SEQ ID No. 13)],2.2
7,{CH2CO}-[NMeQ][NMeQ]D[MeD][Phe(4-COOH)]II[Phe(4-COOH)][NMe2Nal]G[Phe(4-(1-Me-pyrazol-4-yl))][NMeC]-NH2 (thioether N-12) [Macrocyclic peptide of Example 2-13 (SEQ ID No. 16)],2.8
8,{CH2CO}-[NMeQ][MeHseMe″]D[NMeQ][Phe(4-COOH)]II[Phe(4-COOH)][NMe2Nal]G[Phe(4-(1-Me-pyrazol-4-yl))][NMeC]-NH2 (thioether N-12; SMILES CC[C@H](C)[C@@H]1NC(=O)[C@H](Cc2ccc(C(=O)O)cc2)NC(=O)[C@H](CCC(N)=O)N(C)C(=O)[C@H](CC(=O)O)NC(=O)[C@H](CCOC)N(C)C(=O)[C@H](CCC(N)=O)N(C)C(=O)CSC[C@@H](C(N)=O)N(C)C(=O)[C@H](Cc2ccc(-c3cnn(C)c3)cc2)NC(=O)CNC(=O)[C@H](Cc2ccc3ccccc3c2)N(C)C(=O)[C@H](Cc2ccc(C(=O)O)cc2)NC(=O)[C@H]([C@@H](C)CC)NC1=O) [Macrocyclic peptide of Example 2-8 (SEQ ID No. 11)],1.3
9,{CH2CO}-[NMeA][NMeQ]D[NMeQ][Phe(4-COOH)]II[Phe(4-COOH)][NMe2Nal]G[Phe(4-(1-Me-pyrazol-4-yl))][NMeC]-NH2 (thioether N-12; SMILES CC[C@H](C)[C@@H]1NC(=O)[C@H](Cc2ccc(C(=O)O)cc2)NC(=O)[C@H](CCC(N)=O)N(C)C(=O)[C@H](CC(=O)O)NC(=O)[C@H](CCC(N)=O)N(C)C(=O)[C@H](C)N(C)C(=O)CSC[C@@H](C(N)=O)N(C)C(=O)[C@H](Cc2ccc(-c3cnn(C)c3)cc2)NC(=O)CNC(=O)[C@H](Cc2ccc3ccccc3c2)N(C)C(=O)[C@H](Cc2ccc(C(=O)O)cc2)NC(=O)[C@H]([C@@H](C)CC)NC1=O) [Macrocyclic peptide of Example 2-6 (SEQ ID No. 9)],2.7
10,{CH2CO}-[NMeQ][NMeL]D[NMeQ][Phe(4-COOH)]II[Phe(4-COOH)][NMe2Nal]G[Phe(4-(1-Me-pyrazol-4-yl))][NMeC]-NH2 (thioether N-12; SMILES CC[C@H](C)[C@@H]1NC(=O)[C@H](Cc2ccc(C(=O)O)cc2)NC(=O)[C@H](CCC(N)=O)N(C)C(=O)[C@H](CC(=O)O)NC(=O)[C@H](CC(C)C)N(C)C(=O)[C@H](CCC(N)=O)N(C)C(=O)CSC[C@@H](C(N)=O)N(C)C(=O)[C@H](Cc2ccc(-c3cnn(C)c3)cc2)NC(=O)CNC(=O)[C@H](Cc2ccc3ccccc3c2)N(C)C(=O)[C@H](Cc2ccc(C(=O)O)cc2)NC(=O)[C@H]([C@@H](C)CC)NC1=O) [Macrocyclic peptide of Example 2-7 (SEQ ID No. 10)],6.8
11,{CH2CO}-[NMeQ][NMeQ]D[NMeQ][Phe(4-COOH)][Thr(Me)(3)]I[Phe(4-COOH)][NMe2Nal]G[Phe(4-(1-Me-pyrazol-4-yl))][NMeC]-NH2 (thioether N-12) [Macrocyclic peptide of Example 2-15 (SEQ ID No. 18)],1.8
12,{CH2CO}-[NMeQ][NMeQ]D[NMeQ][F4aao(4)]II[Phe(4-COOH)][NMe2Nal]G[Phe(4-(1-Me-pyrazol-4-yl))][NMeC]-NH2 (thioether N-12; SMILES CC[C@H](C)[C@@H]1NC(=O)[C@H](Cc2ccc(OCC(=O)O)cc2)NC(=O)[C@H](CCC(N)=O)N(C)C(=O)[C@H](CC(=O)O)NC(=O)[C@H](CCC(N)=O)N(C)C(=O)[C@H](CCC(N)=O)N(C)C(=O)CSC[C@@H](C(N)=O)N(C)C(=O)[C@H](Cc2ccc(-c3cnn(C)c3)cc2)NC(=O)CNC(=O)[C@H](Cc2ccc3ccccc3c2)N(C)C(=O)[C@H](Cc2ccc(C(=O)O)cc2)NC(=O)[C@H]([C@@H](C)CC)NC1=O) [Macrocyclic peptide of Example 2-14 (SEQ ID No. 17)],4.8
13,{CH2CO}-[NMeQ][NMeQ]D[NMeQ][Phe(4-COOH)]II[F4aao][NMe2Nal]G[Phe(4-(1-Me-pyrazol-4-yl))][NMeC]-NH2 (thioether N-12; SMILES CC[C@H](C)[C@@H]1NC(=O)[C@H](Cc2ccc(C(=O)O)cc2)NC(=O)[C@H](CCC(N)=O)N(C)C(=O)[C@H](CC(=O)O)NC(=O)[C@H](CCC(N)=O)N(C)C(=O)[C@H](CCC(N)=O)N(C)C(=O)CSC[C@@H](C(N)=O)N(C)C(=O)[C@H](Cc2ccc(-c3cnn(C)c3)cc2)NC(=O)CNC(=O)[C@H](Cc2ccc3ccccc3c2)N(C)C(=O)[C@H](Cc2ccc(OCC(=O)O)cc2)NC(=O)[C@H]([C@@H](C)CC)NC1=O) [Macrocyclic peptide of Example 2-17 (SEQ ID No. 20)],1.9
